Target: mouse IgM (mouse)

Substance “recombinant mouse polymeric immunoglobulin receptor (from UniProt O70570 19-771)” has a GSDMD level (Western blot) in primary mouse AT2 treated for 16 h with iKP + r pIgR (0.5 ug/mL) + IgM (0.5 ug/mL), compared with non-treated cells of 326% and a GSDMD-NT level (Western blot) in primary mouse AT2 treated for 16 h with iKP + r pIgR (0.5 ug/mL) + IgM (0.5 ug/mL), compared with non-treated cells of 13 fold.

— publication PMC12241074
